# Measured values reported in US20260241035A1, “FUNCTIONAL NUCLEIC ACID MOLECULE AND METHOD” (THE UNIVERSITY COURT OF THE UNIVERSITY OF EDINBURGH, priority 2022, published 2026).
# T1: SOX9 (Homo sapiens, UniProt P48436)
# T1 construct: These dsDNA fragments were incubated with nuclear extract from GSC7 and GSC328; endogenous in cells; host or cells: nuclear extract of GSC7 and/or GSC328 (patient-derived glioblastoma stem cell lines)
# T1 sequence (P48436 1-509): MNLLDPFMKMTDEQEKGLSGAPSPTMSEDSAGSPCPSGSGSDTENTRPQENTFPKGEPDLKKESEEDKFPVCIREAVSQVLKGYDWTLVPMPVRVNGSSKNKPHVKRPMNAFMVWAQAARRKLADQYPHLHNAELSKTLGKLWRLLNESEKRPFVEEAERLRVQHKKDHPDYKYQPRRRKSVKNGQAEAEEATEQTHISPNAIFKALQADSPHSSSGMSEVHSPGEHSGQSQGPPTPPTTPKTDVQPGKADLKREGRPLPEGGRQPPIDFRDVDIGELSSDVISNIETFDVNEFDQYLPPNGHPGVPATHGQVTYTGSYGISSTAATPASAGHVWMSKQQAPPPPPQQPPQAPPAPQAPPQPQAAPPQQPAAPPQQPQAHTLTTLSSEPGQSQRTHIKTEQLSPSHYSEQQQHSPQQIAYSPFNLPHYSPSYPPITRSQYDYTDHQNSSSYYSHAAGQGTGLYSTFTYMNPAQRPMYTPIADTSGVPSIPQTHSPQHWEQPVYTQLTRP
# B1: ID1101: enhancer fragment, SEQ ID NO: 4 (nucleic acid)
# DNA: GTGAGTGTGACTCACATGCTGGCATCAGAGCCCCTCTTAGAGCTTAGAACACTGGGCCTCTGTCAGGCAAAGAAAAGGAGTCCCTATGAATAGCCATCTCCACAAATAGCAGTTACTGTCACTTCTTAAAAGACACAAGCATGGCTGGAGACCGGCACTG
# Key:
# SOX2 = molecular target: T2, SOX2 (Homo sapiens, UniProt P48431); test: Biotinylated enhancer pull down from nuclear extract, western blot and mass spectrometry; format: binding; settings: for SOX2 enrichment (mass spectrometry): normalised to random sequence 599
# T2 construct: endogenous in cells; host or cells: nuclear extract of GSC7 and GSC328 (patient-derived glioblastoma stem cell lines)
# T2 sequence (P48431 whole entry): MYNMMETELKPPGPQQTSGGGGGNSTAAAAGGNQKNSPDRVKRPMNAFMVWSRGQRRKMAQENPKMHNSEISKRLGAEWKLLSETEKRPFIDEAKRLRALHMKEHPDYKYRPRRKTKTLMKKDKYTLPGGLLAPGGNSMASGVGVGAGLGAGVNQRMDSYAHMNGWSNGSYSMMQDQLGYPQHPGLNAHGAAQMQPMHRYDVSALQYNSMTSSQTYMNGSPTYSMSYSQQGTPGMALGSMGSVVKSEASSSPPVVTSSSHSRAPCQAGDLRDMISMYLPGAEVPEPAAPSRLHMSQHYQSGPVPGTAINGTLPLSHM
# Description: The oligo was PCR-amplified using biotinylated primers. The PCR product was then SPRI purified to remove biotinylated primer dimers. These dsDNA fragments were incubated with nuclear extract from GSC7 and GSC328. They were then bound to streptavidin magnetic beads, washed three times and the frozen beads were sent for mass spectrometry analysis.
# All the buffers were prepared the day before, passed through a […] filter (except the dialysis buffer) and left at 4° C. overnight. DTT and protease inhibitors were added just before use. The cells were scraped on the media and collected on 50 ml falcons, which were spun at 1350 rcf 5 minutes at 4° C. The pellet was resuspended in 50 ml of ice cold PBS, an aliquot was taken for cell counting, and spun again spun at 1350 rcf 5 minutes at 4° C. The pellet was then resuspended in 5 ml per 40 million cells of ice cold buffer A (10 mM HEPES pH 7.9, 1.5 mM MgCl2, 10 mM KCl, 0.5 mM DTT, protease inhibitors (Complete, Roche, 11697498001)) and incubated on ice for 10 min. The cell suspension was transferred to a glass Dounce homogenizer and dounced 40 times on ice. The cell suspension was transferred to a falcon and centrifuged at 1350 rcf for 10 min at 4° C. The supernatant was discarded (cytosolic extract) and the pellet resuspended in 100 μl per 10 million cells in ice cold buffer B (20 mM HEPES pH 7.9, 5% glycerol, 1 M NaCl, 1.5 mM MgCl2, 0.2 mM EDTA pH 8.0, 0.5 mM DTT, protease inhibitors (Complete, Roche, 11697498001)). The suspension was rotated for 30 minutes at 4° C. and transferred into a dialysis membrane (SnakeSkin, Thermo Scientific, Cat 68100). Dialysis was carried out in 500 ml of dialysis buffer (20 mM HEPES pH 7.9, 5% glycerol, 100 mM KCl, 0.83 mM EDTA pH 8.0, 1.66 mM DTT, protease inhibitors (Complete, Roche, 11697498001)) for two hours at 4° C. with rotation. Dialysis buffer was changed (500 ml) and the dialysis was continued overnight at 4° C. […] The supernatant was collected into new 1.5 ml tubes and quantified (Pierce BCA Protein Assay Kit, Thermo Scientific, Cat 23225). […]
# SOX9 = molecular target: T1, SOX9; test: Biotinylated enhancer pull down from nuclear extract, SOX9 detection; format: binding; settings: random DNA 599 as negative control
# Description: All the buffers were prepared the day before, passed through a 22 μm filter (except the dialysis buffer) and left at 4° C. overnight. DTT and protease inhibitors were added just before use. […] The cell suspension was transferred to a glass Dounce homogenizer and dounced 40 times on ice. […] Dialysis buffer was changed (500 ml) and the dialysis was continued overnight at 4° C. The extract was collected in an 1.5 ml tube and spun at maximum speed for 15 min at 4° C. […] 100 μg aliquots were flash frozen in liquid nitrogen and stored at −80° C.
# Enhancers were amplified with 5′ biotinylated primers (Table 5) using PrimeStar Max (Takara) according to the manufacturer's instructions.
# Streptavidin Magnetic Bead (NEB, S1420S) were used according to the manufacturer's instructions. […]
# Next, we aimed to confirm that indeed SOX2 and SOX9 are binding to the enhancer and the SOX dimer motif. […] To filter for transcription factors a list of all transcription factors was obtained from UniProt and overlapped with the detected proteins in both cell lines.
molecule,measurement,setting,value
B1,SOX2 enrichment (mass spectrometry),SOX2; G7 nuclear extract,4.4 fold
same,SOX2 pull down,SOX2; GSC7 and GSC328,pulled down specifically
same,SOX2 enrichment (mass spectrometry),SOX2; GSC328 nuclear extract,23 fold
same,SOX9 interaction,SOX9,selectively interacts
